Reference: PMC4272012 (Nature methods, 2014)
Changes are numbered by the printed parent chain.

B1: LaG-19 (VHH)
VHH: QVQLVESGGGLVQAGGSLRLSCAASGPTGAMAWFRQAPGKEREFVGGISRSGTDTYYVDSVKGRFTIDRDNAKNTVYLQMNSLKPEDTAVYYCAARRSQILFTSRTDYEFWGQGTQVTV
B2: LaG-41 (VHH)
VHH: B1 VHH with Q1D, R50G, G52E, I67V, A72V, S98R, Q99I, I100T, E109D, Q113R
B3: LaG-14 (VHH)
VHH: QVQLVESGGGLVQAGGSLRLSCAASGRTYSISAMGWFRQAPGKEREFVAGISRSGGTTYYADPVKGRFTISRDNAKNTVYLQMNSLKPEDTAVYYCAARARGWTTFPAREIEYDYWGQGTQVTV
B4: LaG-21 (VHH)
VHH: QVQLVESGGGLVQAGGSLRLSCAASGPTGAMAWFRQAPGMEREFVGGISGSETDTYYADFVKGRLTVDRDNVKNTVDLQMNSLKPEDTAVYYCAARRRVTLFTSRADYDFWGQGTQVTVS
B5: LaG-17 (VHH)
VHH: DVQLVESGGGLVQAGGSLRLSCAASGRTISMAAMSWFRQAPGKEREFVAGISRSAGSAVHADSVKGRFTISRDNTKNTLYLQMNSLKAEDTAVYYCAVRTSGFFGSIPRTGTAFDYWGQGTQVTVS
B6: LaG-9 (VHH)
VHH: DVQLVESGGGLVQAGGSLRLSCAASGRTFSTSAMGWFRQAPGKEREFVARITWSAGYTAYSDSVKGRFTISRDKAKNTVYLQMNSLKPEDTAVYYCASRSAGYSSSLTRREDYAYWGQGTQVTVS
B7: LaG-2 (VHH)
VHH: QVQLVESGGGLVQAGGSLRLSCAASGRTFSNYAMGWFRQAPGKEREFVAAISWTGVSTYYADSVKGRFTISRDNDKNTVYVQMNSLIPEDTAIYYCAAVRARSFSDTYSRVNEYDYWGQGTQVTV
B8: LaG-26 (VHH)
VHH: QVQLVESGGGLVQAGASMRLSCAASGITFSLYHWVWFRQAAGREHEFVAGIIRSGGETLSADSVKDRFIISRDDAKNTLYLQMNMLQPEDTATYYCAATHRADWYSSAFREYIFRGQGTQVTVS
B9: LaG-43 (VHH)
VHH: DVQLVESGGGLVQPGGSLRLSCEASGGAFSTVAMGWFRQAPGKEREFVGAITWTAGSTYYADSAKGRFTISRDNAKNTVHLQMNSLKPEDTAVYYCAQRVRGFFGPLRTTPSWYEYWGQGTQVTVS
B10: LaG-27 (VHH)
VHH: DVQLVESGGGLVQAGGSLRLSCTASGLTISTYNIGWFRQAPGKEREFVGIIIRNGDTTYYADSVKGRFTISRDNAKNTVYLQMNSVKPADAAVYSCGATVRAGAAAEQYNSYIFRGQGTQVTV
B11: LaG-16 (VHH)
VHH: QVQLVESGGRLVQAGDSLRLSCAASGRTFSTSAMAWFRQAPGREREFVAAITWTVGNTILGDSVKGRFTISRDRAKNTVDLQMDNLEPEDTAVYYCSARSRGYVLSVLRSVDSYDYWGQGTQVTVS

molecular target: GFPuv (Aequorea victoria, UniProt P42212, 15N-labeled)

binding result	Binder
binds	B1
binds	B2
binds	B3
binds	B4
binds	B5
binds	B6
binds	B7
binds	B8
binds	B9
binds	B10
binds	B11
